Experimental data reported in the supplement of paper PMC7877785.
± gives the uncertainty stated by the source.

Test: self-splicing fitness, log relative to wild type (ln ratio); higher = more splicing; Tetrahymena group I intron in knt gene, E. coli kanamycin selection, DiMSum; sequences stand for … in CUCUCU…GGAGGGAAAAGUUAUCAGGCAUGCACCUGGUAGCUAGUCUUUAAACCAAUAGAUUGCAUCGGUUUAAAAGGCAAGACCGUCAAAUUGCGGGAAAGGGGUCAACAGCCGUUCAGUACCAAGUCUCAGGGGAAACUUUGAGAUGGCCUUGCAAAGGGUAUGGUAAUAAGCUGACGGACAUGGUCCUAACCACGCAGCCAAGUCCUAAGUCAACAGAUCUUCUGUUGAUAUGGAUGCAGUUCACAGACUAAAUGUCGGUCGGGGAAGAUGUAUUCUUCUCAUAAGAUAUAGUCGGACCUCUCCUUAAUGGGAGCUAGCGGAUGAAGUGAUGCAACACUGGAGCCGCUGGGAACUAAUUUGUAUGCGAAAGUAUAUUGAUUAGUUUUGGAGUACUCGUGGUCG
Outline: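 Fitness was computed with DiMSum as the error-weighted combination of replicate fold changes, kanamycin versus none, each normalised to wild type. The library randomised all eight intron nucleotides of the P1ex region, with the intron placed in the knt kanamycin-resistance gene on pET-22b(+) in E. coli BL21(DE3). Six replicate transformations were grown overnight at 37°C or 30°C on LB agar with or without 25 μg/mL kanamycin, plus 100 μg/mL carbenicillin, 50 μM IPTG and 0.2% rhamnose. Pooled colonies were amplicon-sequenced on an Illumina HiSeq 2500.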

| Sequence | self-splicing fitness (ln) (30 °C) | self-splicing fitness (ln) (37 °C) |
| --- | --- | --- |
| CGGAAGCAAUAUUACGGUCG | -1.55 ± 0.099 | -0.978 ± 0.12 |
| CGGAAGCAAUAUUACGGUGU | -3.77 ± 0.18 | -2.1 ± 0.12 |
| CGGAAGCAAUAUUACGGUUA | -1.96 ± 0.18 | -2.25 ± 0.2 |
| CGGAAGCAAUAUUACGGUUC | -3.49 ± 0.3 | -2.85 ± 0.25 |
| CGGAAGCAAUAUUACGGUUU | -4.42 ± 0.36 | -3.88 ± 0.31 |
| CGGAAGCAAUAUUACGUCGG | -0.77 ± 0.064 | 0.0281 ± 0.099 |
| CGGAAGCAAUAUUACGUGAA | -3.4 ± 0.17 | -1.66 ± 0.15 |
| CGGAAGCAAUAUUACGUGAG | -0.991 ± 0.058 | -0.391 ± 0.085 |
| CGGAAGCAAUAUUACGUUCG | -2.69 ± 0.18 | -2.29 ± 0.34 |
| CGGAAGCAAUAUUACGUUUC | -4.04 ± 0.29 | -2.69 ± 0.23 |
| CGGCAGCAAUAUUACGAACA | -0.789 ± 0.096 | -0.204 ± 0.12 |
| CGGCAGCAAUAUUACGAAGU | -3.35 ± 0.28 | -0.302 ± 0.2 |
| CGGCAGCAAUAUUACGAAUG | 0.0635 ± 0.086 | -0.00804 ± 0.099 |
| CGGCAGCAAUAUUACGACAG | 0.187 ± 0.11 | -1.27 ± 0.12 |
| CGGCAGCAAUAUUACGACCC | -0.681 ± 0.19 | 0.752 ± 0.29 |
| CGGCAGCAAUAUUACGACUA | -0.68 ± 0.097 | 0.0629 ± 0.12 |
| CGGCAGCAAUAUUACGAGCC | -2.78 ± 0.24 | -1.37 ± 0.21 |
| CGGCAGCAAUAUUACGAUCG | -2.76 ± 0.18 | -1.97 ± 0.19 |
| CGGCAGCAAUAUUACGCCGG | -2.15 ± 0.17 | -2.16 ± 0.23 |

| Sequence | self-splicing fitness (ln) (30 °C) | self-splicing fitness (ln) (37 °C) |
| --- | --- | --- |
| CGGCAGCAAUAUUACGCUCA | -0.116 ± 0.15 | -0.137 ± 0.16 |
| CGGCAGCAAUAUUACGGACA | -0.835 ± 0.12 | 0.127 ± 0.11 |
| CGGCAGCAAUAUUACGGCGC | -2.64 ± 0.27 | -2.53 ± 0.24 |
| CGGCAGCAAUAUUACGGGCU | -3.81 ± 0.22 | -2.16 ± 0.24 |
| CGGCAGCAAUAUUACGGUCC | -1.34 ± 0.082 | 0.00991 ± 0.09 |
| CGGCAGCAAUAUUACGGUGG | -1.41 ± 0.09 | -0.157 ± 0.082 |
| CGGCAGCAAUAUUACGUAUU | -3.6 ± 0.16 | -3.11 ± 0.18 |
| CGGCAGCAAUAUUACGUCGU | -3.21 ± 0.2 | -2.64 ± 0.21 |
| CGGCAGCAAUAUUACGUCUC | -1.24 ± 0.065 | -0.433 ± 0.086 |
| CGGCAGCAAUAUUACGUGCG | -3 ± 0.16 | -2.54 ± 0.16 |
| CGGCAGCAAUAUUACGUGGG | -3.46 ± 0.14 | -2.24 ± 0.11 |
| CGGCAGCAAUAUUACGUUGU | -2.18 ± 0.11 | -2.68 ± 0.19 |
| CGGGAGCAAUAUUACGAACG | -4.35 ± 0.24 | -3 ± 0.23 |
| CGGGAGCAAUAUUACGAAUA | -2.55 ± 0.36 | -2.52 ± 0.39 |
| CGGGAGCAAUAUUACGACCA | -1.08 ± 0.31 |  |
| CGGGAGCAAUAUUACGAGAC | -3.18 ± 0.45 | -2.45 ± 0.44 |
| CGGGAGCAAUAUUACGAUAU | -3.65 ± 0.35 |  |
| CGGGAGCAAUAUUACGAUGU | -2.47 ± 0.39 | -2.53 ± 0.39 |
| CGGGAGCAAUAUUACGCAAA |  | -2.01 ± 0.35 |
